One substance from PMC2690590, “Functional recombinant MHC class II molecules and high-throughput peptide-binding assays” (Immunome Research, 2009) can be followed below.

What all share (assay): AlphaScreen or HTRF
A general note: In Alpha technology, singlet oxygen from a donor bead excites a nearby acceptor bead.

Experiment [1] addresses DR1GrpE: DR1 α chain 1–181 and β chain 1–190 fused C-terminally to GrpE, not biotinylated (human).
Experiment [2] deals with DR2a (DRA*0101/DRB5*0101) with non-biotinylated β chain, competitive LOCI assay (human).
Experiment [3] has as its target DR2a (DRA*0101/DRB5*0101), biotinylated, direct LOCI assay at pH 6 (human).
In experiment [4] the target is DRB1*0813: DRA*0101/DRB1*0813 (human).

Flu HA1194-202 peptide […]: the IC50 – broadly, the point on the concentration scale where inhibition reaches its midpoint – was 42 nM in experiment [1] and 529 nM in experiment [2]. Further, the Kd (commonly the equilibrium constant for the complex coming apart) in experiment [3] turned out to be 167 nM; in experiment [4] it was 276 nM.
